Key:
[1] = tested on: Orobanche aegyptiaca seeds; assay: Petri dish assay: effect of SLP on O. aegyptiaca seed germination and radicle elongation; assay type: in vivo
Protocol: The effect of the direct application of the lytic toxin Sarcotoxin IA (SLP) to seeds of the parasitic plant O. aegyptiaca was assayed. SLP was obtained by production in S. cerevisiae, and applied to seeds during both preconditioning and germination stages as follows: Yeast strain Y426-MATa yeast cells transformed with a yeast shuttle vector-pFL61 to express the sarcotoxin IA were cultured in -URA liquid media at 30° C. for 72 h as described in Aly et al. (1999). The cultures were then centrifuged for 5 min at 4000 g and the supernatant collected for SLP assay. Quantitative evaluation of the SLP concentration present in the growth media was obtained by Western blot analysis. The effect of SLP on O. aegyptiaca seeds was determined in a Petri dish assay. Parasite seeds were surface-sterilized, dispersed on Whatman GF/A glass-fiber (0.7 cm diam.), covered with the same filter, and placed in a Petri dish. […] After incubation in dark at 26° C. for 7 days, seeds were rated for radicles damage.

[2] = tested on: several bacteria, including plant pathogenic bacteria; details: SLP secreted from yeast cells (Aly et al, 1999); cited from earlier work
[3] = SLP 10 μM applied at germination (three days after GR24)
[4] = SLP 20 μM applied at germination
[5] = SLP 20 μM applied at preconditioning
[6] = SLP 30 μM applied at germination
[7] = SLP 30 μM applied at preconditioning
[8] = SLP 40 μM applied at germination
[9] = SLP 40 μM applied at preconditioning

B1: sarcotoxin IA (protein, listed as Sarcophaga peregrina)
chain: MNFQNIFIFVALILAVFAGQSQAGWLKKIGKKIERVGQHTRDATIQGLGIAQQAANVAATARG
[1]; [3]
  Gemination (% of control): 80 ± 6 % of control
  Radicle length (% of control): 65 ± 5 % of control
[1]; SLP 10 μM applied at preconditioning (mixed with GR24)
  Radicle length (% of control): 65 ± 6 % of control
[1]; SLP 10 μM applied at preconditioning (mixed with GR24), 7 days, 26° C., dark
  Gemination (% of control): 76 ± 3 % of control
[1]; [4]
  Gemination (% of control): 76 ± 8 % of control
  Radicle length (% of control): 47 ± 3 % of control
[1]; [5]
  Gemination (% of control): 69 ± 6 % of control
  Radicle length (% of control): 52 ± 2 % of control
[1]; [6]
  Gemination (% of control): 43 ± 7 % of control
  Radicle length (% of control): 33 ± 4 % of control
[1]; [7]
  Gemination (% of control): 6 ± 1 % of control
  Radicle length (% of control): 12 ± 8 % of control
[1]; [8]
  Gemination (% of control): 36 ± 2 % of control
  Radicle length (% of control): 4 ± 1 % of control
[1]; [9]
  Gemination (% of control): 0 % of control
  Radicle length (% of control): 0 % of control
[1]; presence of SLP, in words
  radicle elongation and seed germination of the parasite: significantly reduced
[2]
  cytotoxic effect against bacteria: potent cytotoxic effect
